Residues, ends and D or L forms follow the SMILES beside them. No end group written: not given here. *: point of attachment. X1 = CN(C)c1ccc2c(-c3ccc(N4C(=O)CC(*)C4=O)cc3C(=O)[O-])c3ccc(=[N+](C)C)cc-3oc2c1; fluorescein‑maleimide = fluorescein attached via maleimide to Cys
T1: BsGpsB1-68 (B. subtilis, UniProt P0CI74 1-68)
T1 construct: GpsB, Bacillus subtilis, residues 1-68 (N-terminal domain); also called N-terminal domain of B. subtilis GpsB; wildtype BsGpsB1-68; source: E. coli BL21(DE3), purified (Ni-NTA, thrombin removal of the His6-tag, SEC); not shown: His6, N-terminal, cleaved
T1 sequence (looked up): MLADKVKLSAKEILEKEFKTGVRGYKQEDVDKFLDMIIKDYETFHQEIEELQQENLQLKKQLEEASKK

B1: Fluorescein-BsPBP11-32 Ala10Pro (peptide)
peptide: GSMADQFNSREPRRKANSKSSPSPKKGKKRKKC(fluorescein‑maleimide)G
notes: non-native N-terminal residues left by the recombinant method; PBP1 (ponA), Bacillus subtilis, residues 1-32; also called 31-labelled BsPBP1 1-32 A10P
B2: Fluorescein-BsPBP11-32 Arg8Ala (peptide)
peptide: GSMADQFNSAEARRKANSKSSPSPKKGKKRKKC(fluorescein‑maleimide)G
notes: non-native N-terminal residues left by the recombinant method; PBP1 (ponA), Bacillus subtilis, residues 1-32; also called 31-labelled BsPBP1 1-32 R8A
B3: Fluorescein-BsPBP11-32 Arg28Ala (peptide)
peptide: GSMADQFNSREARRKANSKSSPSPKKGKKAKKC(fluorescein‑maleimide)G
notes: non-native N-terminal residues left by the recombinant method; PBP1 (ponA), Bacillus subtilis, residues 1-32; also called 31-labelled BsPBP1 1-32 R28A
B4: Fluorescein-BsPBP11-32 wildtype (peptide)
peptide: GSMADQFNSREARRKANSKSSPSPKKGKKRKKC(fluorescein‑maleimide)G
notes: non-native N-terminal residues left by the recombinant method; PBP1 (ponA), Bacillus subtilis, residues 1-32, cytoplasmic mini-domain; also called BsPBP1 1-32 labelled with fluorescein at residue 31; 31-labelled peptide
B5: TAMRA-BsPBP11-32 Ala10Pro (peptide)
peptide: GSMADQFNSREPRRKANC(TAMRA‑maleimide)KSSPSPKKGKKRKKGG
notes: non-native N-terminal residues left by the recombinant method; PBP1 (ponA), Bacillus subtilis, residues 1-32; also called BsPBP1 1-32 A10P
B6: TAMRA-BsPBP11-32 Arg8Ala (peptide)
peptide: GSMADQFNSAEARRKANC(TAMRA‑maleimide)KSSPSPKKGKKRKKGG
notes: non-native N-terminal residues left by the recombinant method; PBP1 (ponA), Bacillus subtilis, residues 1-32; also called BsPBP1 1-32 R8A
B7: TAMRA-BsPBP11-32 Arg8Lys (peptide)
peptide: GSMADQFNSKEARRKANC(TAMRA‑maleimide)KSSPSPKKGKKRKKGG
notes: non-native N-terminal residues left by the recombinant method; PBP1 (ponA), Bacillus subtilis, residues 1-32; also called BsPBP1 1-32 R8K
B8: TAMRA-BsPBP11-32 Arg11Ala (peptide)
peptide: GSMADQFNSREAARKANC(TAMRA‑maleimide)KSSPSPKKGKKRKKGG
notes: non-native N-terminal residues left by the recombinant method; PBP1 (ponA), Bacillus subtilis, residues 1-32; also called BsPBP1 1-32 R11A
B9: TAMRA-BsPBP11-32 Arg28Ala (peptide)
peptide: GSMADQFNSREARRKANC(TAMRA‑maleimide)KSSPSPKKGKKAKKGG
notes: non-native N-terminal residues left by the recombinant method; PBP1 (ponA), Bacillus subtilis, residues 1-32; also called BsPBP1 1-32 R28A
B10: TAMRA-BsPBP11-32 Ser7Ala (peptide)
peptide: GSMADQFNAREARRKANC(TAMRA‑maleimide)KSSPSPKKGKKRKKGG
notes: non-native N-terminal residues left by the recombinant method; PBP1 (ponA), Bacillus subtilis, residues 1-32; also called BsPBP1 1-32 S7A

What follows are molecules tested against T2, BsGpsB1-68 (Bacillus subtilis, UniProt P0CI74) (assay: not given). Conditions: FP, relative to wild-type peptide.
T2 construct: His6 (N, cleaved yes); made in house; host or cells: E. coli BL21(DE3)
Type: binding
Source text: 75 the BsGpsB5-64:BsPBP11-17 complex.

**Q.** How did the “reduction in affinity for BsGpsB1-68” value turn out when CSCC[C@H](NC(=O)[C@H](CO)NC(=O)CN)C(=O)N[C@@H](C)C(=O)N[C@@H](CC(=O)O)C(=O)N[C@@H](CCC(N)=O)C(=O)N[C@@H](Cc1ccccc1)C(=O)N[C@@H](CC(N)=O)C(=O)N[C@@H](CO)C(=O)N[C@@H](C)C(=O)N[C@@H](CCC(=O)O)C(=O)N[C@@H](C)C(=O)N[C@@H](CCCNC(=N)N)C(=O)N[C@@H](CCCNC(=N)N)C(=O)N[C@@H](CCCCN)C(=O)N[C@@H](C)C(=O)N[C@@H](CC(N)=O)C(=O)N[C@@H](CSC1CC(=O)N(c2ccc(-c3c4ccc(=[N+](C)C)cc-4oc4cc(N(C)C)ccc34)c(C(=O)[O-])c2)C1=O)C(=O)N[C@@H](CCCCN)C(=O)N[C@@H](CO)C(=O)N[C@@H](CO)C(=O)N1CCC[C@H]1C(=O)N[C@@H](CO)C(=O)N1CCC[C@H]1C(=O)N[C@@H](CCCCN)C(=O)N[C@@H](CCCCN)C(=O)NCC(=O)N[C@@H](CCCCN)C(=O)N[C@@H](CCCCN)C(=O)N[C@@H](CCCNC(=N)N)C(=O)N[C@@H](CCCCN)C(=O)N[C@@H](CCCCN)C(=O)NCC(=O)NCC(=O)O (some centres unmarked) [TAMRA-BsPBP11-32 Arg8Ala] (H-GSMADQFNSAEARRKANC(X1)KSSPSPKKGKKRKKGG-OH) was run?
**A.** at least 5 fold

What follows are molecules tested against T1, BsGpsB1-68 (assay: fluorescence polarisation; GpsB protein titrated into TAMRA- or fluorescein-labelled peptide; 10 mM Tris.HCl pH 8.0, 250 mM NaCl, 0.1% reduced Triton X-100; all data fitted to a 1:1 interaction model, Kd ± standard error). Conditions: both partners purified.

**Q.** B1 was tested. Which Kd did it give?
**A.** > 500 µM

**Q.** With B2 as the molecule, how does the Kd read?
**A.** > 500 µM

**Q.** With B3 as the molecule, how does the Kd read?
**A.** 130 µM

**Q.** How did the Kd turn out when B4 was run?
**A.** 100 µM

**Q.** Which Kd does the source give for B5 here?
**A.** > 1000 µM

**Q.** For B6, which Kd is on record?
**A.** > 1700 µM

**Q.** With B7 as the molecule, how does the Kd read?
**A.** > 2000 µM

**Q.** How did the Kd turn out when B8 was run?
**A.** > 600 µM

**Q.** Which Kd does the source give for B9 here?
**A.** 90 µM

**Q.** For B10, which Kd is on record?
**A.** > 700 µM
